Test results: patent US20250011363A1, “OPTIMIZED SHORTENED PEPTIDE THAT BINDS TO ACETYLCHOLINE RECEPTOR, AND USE THEREOF” (SKINMED CO., LTD., priority 2021, published 2025)

biological target: acetylcholine receptor; experiment: SPR, AchR immobilised on CM5 chip, peptide 10 uM

| Binder | Binding affinity (RU) |
| --- | --- |
| KEPIRK [6mer-2-604] | 16 |
| KKWVKR [6mer-2-607] | 31 |
| KRYNVR [6mer-1-1060] | 21 |
| KDNGRK [6mer-2-615] | 27 |
| RIKMRR [6mer-2-611] | 22 |
| KHHKKR [6mer-2-618] | 12 |
| REPNRR [6mer-2-644] | 12 |
| KMAPKR [6mer-2-636] | 21 |
| RYAFRR [6mer-2-630] | 27 |
| RDCVRK [6mer-2-612] | 17 |
| RRNTAK [6mer-1-1056] | 27 |
| KFHARR [6mer-2-603] | 32 |
| KYAVKR [6mer-2-633] | 17 |
| KRCNDK [6mer-1-1055] | 40 |
| KKTPGR [6mer-1-1045] | 27 |
| RCNHKK [6mer-2-608] | 32 |
| KNCGKK [6mer-2-605] | 17 |
| KFKKKR [6mer-2-640] | 21 |
| RYEHRK [6mer-2-634] | 33 |
| RRICMR [6mer-1-1062] | 27 |
| KRIEFR [6mer-1-1040] | 28 |
| KKKSFK [6mer-1-1051] | 43 |
| RKSFKR [6mer-2-628] | 30 |
| KFDVRK [6mer-2-649] | 31 |
| KKDHKK [6mer-1-1049] | 31 |
| RKPFRR [6mer-2-606] | 15 |

| Binder | Binding affinity (RU) |
| --- | --- |
| KRHWIR [6mer-1-1052] | 33 |
| RDSDRR [6mer-2-609] | 24 |
| RRCMMK [6mer-1-1048] | 36 |
| KRFPWR [6mer-1-1058] | 21 |
| RPPDRR [6mer-2-619] | 26 |
| RKPTAK [6mer-1-1064] | 41 |
| RRISIR [6mer-1-1061] | 41 |
| KKIDHK [6mer-1-1063] | 25 |
| RKNPKR [6mer-2-610] | 32 |
| KTEPKR [6mer-2-647] | 19 |
| KKHHIR [6mer-1-1044] | 24 |
| RFKARK [6mer-2-650] | 18 |
| RHTGRR [6mer-2-620] | 33 |
| RKYTPK [6mer-1-1053] | 27 |
| RKEHGK [6mer-1-1041] | 23 |
| KHAHRR [6mer-2-623] | 13 |
| KKTARR [6mer-2-627] | 33 |
| KPPIRK [6mer-2-624] | 33 |
| REPHRK [6mer-2-616] | 26 |
| RRETVK [6mer-1-1059] | 39 |
| KAWIRR [6mer-2-614] | 19 |
| KKMEDR [6mer-1-1050] | 38 |
| RPPVRK [6mer-2-637] | 32 |
| KECVRR [6mer-2-635] | 11 |
| RFPDKK [6mer-2-625] | 33 |
| KANPKK [6mer-2-643] | 12 |

| Binder | Binding affinity (RU) |
| --- | --- |
| RCNGRR [6mer-2-617] | 32 |
| KIEMKR [6mer-2-653] | 20 |
| KNSEKK [6mer-2-626] | 33 |
| RKATDK [6mer-1-1047] | 30 |
| KRKPVR [6mer-1-1057] | 43 |
| RFCWKK [6mer-2-629] | 32 |
| KNADRR [6mer-2-651] | 21 |
| RCWAKR [6mer-2-638] | 30 |
| RHEPKR [6mer-2-621] | 32 |
| REEFRR [6mer-2-641] | 12 |
| KTENKK [6mer-2-642] | 16 |
| KYDIKR [6mer-2-632] | 12 |
| RAAPRR [6mer-2-646] | 32 |
| KNSHKK [6mer-2-601] | 25 |
| RTTMRK [6mer-2-652] | 16 |
| RYTNKR [6mer-2-622] | 13 |
| KYCMKR [6mer-2-631] | 16 |
| RKDPHR [6mer-1-1046] | 38 |
| RIKVKK [6mer-2-645] | 15 |
| KAANRR [6mer-2-613] | 18 |
| RNTPKR [6mer-2-602] | 24 |
| RYPDRK [6mer-2-648] | 23 |
| KHTVKK [6mer-2-639] | 23 |
| KKITAR [6mer-1-1042] | 40 |
| RRMKVK [6mer-1-1054] | 37 |
| KRAAHR [6mer-1-1043] | 30 |
